Legend:
[1] = target: T1, BV2509 (recombinant CoV S glycoprotein, BA.1) (SARS-CoV-2, UniProt P0DTC2 14-1273); experiment: BLI, antibody on anti-mouse Fc biosensor, rS analyte
[2] = target: T2, BV2542 (recombinant CoV S glycoprotein, BA.2.12.1) (SARS-CoV-2, UniProt P0DTC2 14-1273); experiment: as above
[3] = target: T3, BV2541 (recombinant CoV S glycoprotein, BA.4) (SARS-CoV-2, UniProt P0DTC2 14-1273); experiment: as above
[4] = target: BV2465 (recombinant CoV S glycoprotein, Delta) (SARS-CoV-2, UniProt P0DTC2 14-1273); experiment: as above
[5] = target: T4, BV2540 (recombinant CoV S glycoprotein, BA.5) (SARS-CoV-2, UniProt P0DTC2 14-1273); experiment: as above
[6] = target: T5, BV2523 (recombinant CoV S glycoprotein, BA.2) (SARS-CoV-2, UniProt P0DTC2 14-1273); experiment: as above
[7] = target: BV2425 (recombinant CoV S glycoprotein, Alpha) (SARS-CoV-2, UniProt P0DTC2 14-1273); experiment: as above
[8] = target: BV2443 (recombinant CoV S glycoprotein, Gamma) (SARS-CoV-2, UniProt P0DTC2 14-1273); experiment: as above
[9] = target: BV2373 (recombinant CoV S glycoprotein, Prototype) (SARS-CoV-2, UniProt P0DTC2 14-1273); experiment: as above
[10] = target: BV2438 (recombinant CoV S glycoprotein, Beta) (SARS-CoV-2, UniProt P0DTC2 14-1273); experiment: as above
[11] = target: T6, BV2561 (recombinant CoV S glycoprotein, BA.2.75) (SARS-CoV-2, UniProt P0DTC2 14-1273); experiment: as above
[12] = target: T7, BV2562 (recombinant CoV S glycoprotein, BA.4.6) (SARS-CoV-2, UniProt P0DTC2 14-1273); experiment: as above
[13] = target: T1, BV2509 (recombinant CoV S glycoprotein, …); experiment: hACE2 receptor inhibition ELISA on coated rS; competitor hACE2-His
[14] = target: T2, BV2542 (recombinant CoV S glycoprotein, …); experiment: as above
[15] = target: T3, BV2541 (recombinant CoV S glycoprotein, …); experiment: as above
[16] = target: T4, BV2540 (recombinant CoV S glycoprotein, …); experiment: as above
[17] = target: T5, BV2523 (recombinant CoV S glycoprotein, …); experiment: as above
[18] = target: BV2589 (recombinant CoV S glycoprotein, BQ.1.1) (SARS-CoV-2, UniProt P0DTC2 14-1273); experiment: as above
[19] = target: T6, BV2561 (recombinant CoV S glycoprotein, …); experiment: as above
[20] = target: T7, BV2562 (recombinant CoV S glycoprotein, …); experiment: as above
[21] = target: T2, BV2542 (recombinant CoV S glycoprotein, …); experiment: ELISA on coated rS
[22] = target: T4, BV2540 (recombinant CoV S glycoprotein, …); experiment: ELISA on coated rS
[23] = target: T5, BV2523 (recombinant CoV S glycoprotein, …); experiment: ELISA on coated rS
[24] = target: T8, RBD of a CoV S glycoprotein related to a CoV S glycoprotein from the SARS-CoV-2 omicron strain (SARS-CoV-2 omicron strain); experiment: BLI, RBD-His on Ni-NTA biosensor, antibody analyte
T8 construct: domain: RBD

B1: 425.6 (antibody, V domains shown)
VH: VQLKQSGPSLVQPSQSLSITCTVSGFSLTSYGIHWVRQSPGKGLEWLGVIWRGGSTDYNAAFMSRLTITKDNSKSQVFFKMNSLQADDTAIYYCATHTEGDDVDYWGQGTSVTVSS
VL: QIVLTQSPAIMSVSPGEKVTMTCSASSTMSFMYWYQQKPGSSPRLLIYDTSNLASGVPVRFSGSGSGTSYSLTISRVEAEDAATYYCQQWNTYPLTFGAGTKLELKR
[1]
  Kd: 3.91 pM
  koff: 1.54e-07 s⁻¹
  kon: 41300 M⁻¹ s⁻¹
[2]
  Kd: 3.81 pM
  koff: 1.51e-07 s⁻¹
  kon: 40200 M⁻¹ s⁻¹
[3]
  Kd: < 1 pM
[4]
  Kd: < 1 pM
[5]
  Kd: 1.76 pM
  koff: 1.5e-07 s⁻¹
  kon: 85900 M⁻¹ s⁻¹
[6]
  Kd: 3.69 pM
  koff: 1.37e-07 s⁻¹
  kon: 38200 M⁻¹ s⁻¹
[7]
  Kd: < 1 pM
[8]
  Kd: < 1 pM
[9]
  Kd: < 1 pM
[10]
  Kd: < 1 pM
[11]
  Kd: < 1 pM
  koff: < 1e-07 s⁻¹
  kon: 46900 M⁻¹ s⁻¹
[12]
  Kd: < 1 pM
[13]
  IC50: > 3 µg/mL
[14]
  IC50: 0.028 µg/mL
[15]
  IC50: 0.037 µg/mL
[16]
  IC50: 0.028 µg/mL
[17]
  IC50: 0.032 µg/mL
[18]
  IC50: > 3 µg/mL
[19]
  IC50: > 5 µg/mL
[20]
  IC50: 0.071 µg/mL
[21]
  EC50: 0.034 µg/mL
[22]
  EC50: 0.014 µg/mL
[23]
  EC50: 0.028 µg/mL
[24]
  Kd: 4890 pM
  koff: 0.00123 s⁻¹
  kon: 272000 M⁻¹ s⁻¹

B2: 322.3 (antibody, V domains shown)
VH: RVQLQQSGPELVKPGASVTISCKASGYIFTSDYIHWVKQRPGQGPEWIGWIYPGNINTKYNEKFKGKATLTADKSSSTAYMQLSSLTSEDSAVYFCARDDGNLYYYAMDYWGQGTSVTVSS
VL: NIVLTQSPASLAVSLGQRATISCRASESVDSYGSSFMHWYQQKPGQPPKLLIYLASNLESGVPARFSGSGSRTDFTLTIDPVEADDAATYYCQQNNEDPRTFGGGTKLEIK
[1]
  Kd: 87.4 pM
[2]
  Kd: 41.5 pM
  koff: 1.22e-07 s⁻¹
  kon: 2690 M⁻¹ s⁻¹
[3]
  Kd: < 1 pM
[4]
  Kd: 78.7 pM
[5]
  Kd: 13.2 pM
  koff: 1.46e-07 s⁻¹
  kon: 11100 M⁻¹ s⁻¹
[6]
  Kd: 40.5 pM
[7]
  Kd: 78.7 pM
[8]
  Kd: 107 pM
  koff: 1.26e-07 s⁻¹
  kon: 1180 M⁻¹ s⁻¹
[9]
  Kd: 57.1 pM
[10]
  Kd: 6.48 pM
  koff: 1.24e-07 s⁻¹
  kon: 20100 M⁻¹ s⁻¹
[11]
  Kd: 4.47 pM
[12]
  Kd: < 1 pM
[13]
  IC50: 0.493 µg/mL
[14]
  IC50: 0.866 µg/mL
[15]
  IC50: 0.543 µg/mL
[16]
  IC50: 0.779 µg/mL
[17]
  IC50: 0.224 µg/mL
[18]
  IC50: 0.265 µg/mL
[19]
  IC50: > 5 µg/mL
[20]
  IC50: 0.411 µg/mL
[21]
  EC50: 0.225 µg/mL
[22]
  EC50: 0.045 µg/mL
[23]
  EC50: 0.195 µg/mL
[24]
  Kd: 1.69 pM
  kon: 138000 M⁻¹ s⁻¹

B3: 35.13 (antibody, V domains shown)
VH: QVQLQQSGAELGKPGASVKLSCRASGYTFTRYYIYWVKQRPGQGLEWIGEINPSNGDTHFNEKFKTKATLTVDKSSSSAHIHLTSLTSEDSAVYYCSIHAYSFDFWGQGTTLTVSS
VL: EIQMTQSPSSMSASLGDRITITCQATQDIVKNLNWYQQKPGKPPSFLIYHATELAKGVPSRFSGSGSGSDYSLTISNLESEDFADYYCLQFYDFPFTFGAGTKLELKR
[1]
  Kd: 9.82 pM
  koff: 1.52e-07 s⁻¹
  kon: 15500 M⁻¹ s⁻¹
[2]
  Kd: 7.87 pM
  koff: 1.14e-07 s⁻¹
  kon: 15000 M⁻¹ s⁻¹
[3]
  Kd: < 1 pM
  koff: < 1e-07 s⁻¹
  kon: 22700 M⁻¹ s⁻¹
[4]
  Kd: 3.73 pM
  koff: 1.42e-07 s⁻¹
  kon: 41900 M⁻¹ s⁻¹
[5]
  Kd: 7.23 pM
  koff: 1.21e-07 s⁻¹
  kon: 17600 M⁻¹ s⁻¹
[6]
  Kd: 8.43 pM
  koff: 1.61e-07 s⁻¹
  kon: 19100 M⁻¹ s⁻¹
[7]
  Kd: 3.22 pM
[8]
  Kd: 19.8 pM
  koff: 1.7e-07 s⁻¹
  kon: 9090 M⁻¹ s⁻¹
[9]
  Kd: 5.29 pM
  koff: 1.67e-07 s⁻¹
  kon: 33000 M⁻¹ s⁻¹
[10]
  Kd: 15.2 pM
  koff: 1.54e-07 s⁻¹
  kon: 10500 M⁻¹ s⁻¹
[11]
  Kd: 6.87 pM
[12]
  Kd: < 1 pM
  koff: < 1e-07 s⁻¹
  kon: 38500 M⁻¹ s⁻¹
[13]
  IC50: 0.097 µg/mL
[14]
  IC50: 0.177 µg/mL
[15]
  IC50: > 5 µg/mL
[16]
  IC50: > 3 µg/mL
[17]
  IC50: 0.126 µg/mL
[18]
  IC50: > 3 µg/mL
[19]
  IC50: 0.169 µg/mL
[20]
  IC50: > 5 µg/mL
[21]
  EC50: 0.104 µg/mL
[22]
  EC50: 1.03 µg/mL
[23]
  EC50: 0.053 µg/mL
[24]
  Kd: 1.93 pM
  kon: 142000 M⁻¹ s⁻¹

Source: patent US20250066456A1 (NOVAVAX, published 2025)
